The results in this text go back to a protein production outcome set (Wang et al. 2014).

This data set is described as follows: label from the status in PepcDB records.
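Further: failed if final PepcDB status was selected cloned or expressed and not failed if soluble or beyond.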

“ATGTTGGGCATGATCAGGAACTCACTGTTCGGGAGCGTGGAAACGTGGCCTTGGCAGGTTCTAAGCACCGGGGGCAAGGAAGATGTCTCCTATGAGGAAAGAGCCTGTGAAGGGGGCAAGTTTGCTACTGNGGAAGTGACAGACAAGCCAGTGGATGAGGCTCTCCGGGAAGCGATGCCCAAGATCATGAAGTATGTGGGTGGCACCAATGACAAAGGAGTCGGCATGGGTATGACAGTCCCTGTCTCTTTTGCCGTGTTTCCCAATGAAGATGGCTCCCTACAGAAGAAACTGAAAGTCTGGTTCCGGATTCCGAACCAATTTCAAGGCAGCCCACCGGCCCCCAGTGACGAGAGTGTGAAGATCGAGGAACGGGAGGGCATCACTGTCTATTCCACGCAATTTGGAGGCTATGCCAAGGAAGCAGACTATGTTGCTCATGCCACCCAGCTACGGACCACACTGGAGGGCACACCAGCGACCTACCAGGGTGATGTCTACTACTGTGCCGGATATGACCCTCCCATGAAGCCCTATGGACGCCGTAACGAGGTCTGGCTTGTGAAGGCATGA”: the protein production entry is listed as “not failed”.

For the sequence “AVEARQSATEAERRRHRLEQILKTVPSCVVQLDRDGQFVFANQRAIDVLGLSQSELKDRLYNDPEWEIRDLDGHPIPDAELPFRQVLETGQPLSDARHTIHWPDGTEKVLSVNGAPLFDDDGAVESVVCTLTDIT”, the protein production result is “not failed”. With “AWQAAVASNEPFGEAQLAQRIRRYLPEQGQLFVGNSLVVRLIDALAQLPAGYPVYSNRGASGIDGLIATAAGVQRASARPTLAIVGDLSALYDLNSLALLRQASAPLVLIVVNNNGGQIFSMLPTPQDERRQFYLMPQDVDFSHAAVMFGLAYHRPDDWPSLDEALAGAWRRAGATVIELAVNETDGAQTLQQLLAQVSRL”, the protein production entry is “failed”. The result for “AYPGFELDIDLALPGRGVTALFGHSGSGKSTCLRCIAGLEKAAEGEVTINGETWQDSRRNLFVAPHRRALGYVFQDANLFRHLTVRRNLAFGLKRIAAAERRVELEQACALLGIEHLLERMPERLSGGEQQRVGIARALLTSPRLLLMDEPLASLDLKRKGEILPYLERLHEELDIPVLYVSHSPDEVARLADHLVLLENGKVRASGPIGETLARVDLPLALDDDAGVVIEGTVSDHDPAYGLLTLVLPGSALQMRVAHAPLAPGKRLRFKVQARDVSLNLRDDAQSSILNRLPVRVLELVDTDTAAHVLVRLDAGGNPLLARITRYSRDQLQLR” reads “failed”; that for “CAAIAALSAVGLPSDRFSFEGFLPSKSSQRLLQLEKLKDETQTLIFYEAPHRILDCVTDMMHIFGEDRPVGFAREITKTFETIKKMTLKELVSFIQNDHHQQKGEIVLIVGGNPVNK”, “failed”; that for “CLEDILSATKMVINLCLPQFRPRIHCNKISADGYEVENLISEDLTKRSHGFRTEYFIKPPVYVTVSFPFNVEICRINIDLTAGGGQNVTGLEMYTSASSSRVSWNTPQCRTLGPAEPSVPDKEAFTLVGKVLLKNQSQVVFSHRGFKARPPFGAMEATLPSPAVVAQELWNKGALSLSHVAHLRICITHVTGGGIPCIKRLEVWGQPAKTCSQEVIDSILLVTSENLPQDVALQAPALPMESDCDPGDQPESQQAPSSLQKLAEIIQDVPEEFLDPITLEIMPCPMLLPSGKVIDQSTLEKCNRSEATWGRVPSDPFTGVAFTPHSQPLPHPSLKARIDHFLLQHSIPGCHLLGRAQTALAVIPSSIVLPSQKRKIEQAEHVPDSNFGVNASCFSATSPLVLPTTSEHTAKKMKATNEPSLTHMDCSTGPLSHEQKLSQSLEIALASTLGSMPSFTARLTRGQLQHLGTRGSNTSWRPGTGSEQPGSILGPECASCKRVFSPYFKKEPVYQLPCGHLLCRPCLGEKQRSLPMTCTACQRPVASQDVLRVHF”, “not failed”.

For “CSACGETVMPGSRKLEYGGQTWHEHCFLCSGCEQPLGSRSFVPDKGAHYCVPCYENKFA”, the protein production entry is “not failed”. On to “CSPVRERRLEHQLEPGDTLAGLALKYGVTMEQIKRANRLYTNDSIFLKKTLYIPILTEPRDLFN”, for which the protein production result was “not failed”. Consider “DAHSTIDSRIIHFKLEFANEFLAEKLQVALQSPVYNIYRLRIIDGKPYVLEQTYMSTDVIPGITEDILQKSIYNYIEGKLGLHIASATKILRASSSSENEQHYLQLLPTEPVFEVEQVAYLDNGTPFEYSISRHRYDLFE”, for which the protein production result is “not failed”. For “DAPQGAVIILPGDAESPDWPDTVGPLRRKFPDVGWSSLSITLPDAQDNTLLPREPDAAAGDANAAKPEETPKDAAAKAPDPAAEAEALAAVATAKAAADEERNKAQAELIFARIESAISFAQQNKARNIVLLGHSSGAYWAARFLNERPSPAVQKLVMVAA” the value was “failed”.

For the sequence “DARKGNASAPVVAVEFFDYQCGYCKGALPELAAALSGRNDVAVVMKEFPILGSTSEAAARLALAVRAEHGDEAYLGFHNALLSHKGGLNEAALSILAGAAGYDYPALVARGRQDDITSIIDGNRRLAQALSISGTPAFVFRDGEVVPGMMAADRLTAAFDRLSASTAAAQ”, the protein production result is reported as “failed”. On to “DDANVVRDRDLEVDTTLKSLSQQIENIRSPEGSRKNPARTCRDLKMCHSDWKSGEYWIDPNQGCNLDAIKVFCNMETGETCVYPTQPSVAQKNWYISKNPKDKRHVWFGESMTDGFQFEYGGQGSDPADVAIQLTFLRLMSTEASQNITYHCKNSVAYMDQQTGNLKKALLLKGSNEIEIRAEGNSRFTYSVTVDGCTSHTGAWGKTVIEYKTTKSSRLPIIDVAPLDVGAPDQEFGFDVGPVCFL”, for which the protein production result is reported as “failed”.

For the sequence “DDLLIVRGVNLYPSEIEHAVLDINGVAPYYRIDLYEEDNLDVMELTVERAEGSSKDHSELRDDVLSRLQSVLSFTPDQLNLVNPGTIERTEVGKIQRVYDHRN”, the protein production entry is listed as “failed”.

As to “DDNNAAEVDRQVAQDSAEPKTGENAAAGDSSSTNKNAEKIVAVDISAETEKTYLTHVANDMVIPAYADAAKQSDLLHDLAQKHCQKAPVSGDELQALRDQWLVLAQAWASAEMVNFGPATASMSNLYINYYPDERGLVHGGVADLITANPALTAEQLANESAVVQGIPGLEEALYANDSLDAGQCAYVMSASSALGTRLKDIEKNWQQNAIKLLAIDKTAESDQGLNQWFNSLLSLVETMKSNAIEQPLGLSGKAKGHLPAATAGQSRAIINAKLATLNKAMTDPVLTAILGSNNENTVADTLSTALADTTALLAQMPEDLATADKATQQELYDHLTNITRLIKSQLIPTLGIRVGFNSTDGD”, the protein production entry is on record as “not failed”. The result for “DDNSYSLGDIWIAVATVVPEGNNVYYLRLDDGDKLWPAATNYPNYQPKPNQRALVNFTILADSTQSNLGGFSHYIKVNAIHNILTKSIAKNEGAANDSIYGTDPVSIYNNNMWIGDGYLNIYFETLWGGKTAHFINLIQPDAENDPYTLEFRHNAYDDPQYTIGAGRVAFNLSSLPDTKGETVDLVVNYWTSEGKQAYKLKYNSDKTKMEDTSQGYTNDSISNITDMK” reads “not failed”.

Regarding “DEWTDVKKVMALGFFDGVHLGHQAVIKQAKQIAEEKGLQTAVLTFDPHPSVVLSNIRKQVKYLTPLEDKAEKMANLGVDIMYVVRFTTQFSELSPRAFVDNYLVALNVKHVVAGFDYSYGKKGEGKMTELENYANGRFEVTIVDKQTAASDKISSTNIRRAITEGELEEANQLLGYP”, the protein production entry was “not failed”. For “DGKLYTLNYGKVSSIALDPIEKKPLFHFWPGSCAFSIGTVGCNMHCKHCQNWEISQADESFPYLQDATPESIVRLARHYECESIAYTYNEPTIWYEFVLDTAKLAKKEGLNNILVTNGYINEEPFRELAKYIDAMNIDIKAFNDKFYMKISSVPSGEPSRRTAVIAKKEFGIHVELTYLIIPTLNDNEEEIRRFARWVVEELGDDTPVHFSRFFPHYKLLNLPPTPIQTLEKAYKIAKEEGLKFVYLGNVPGHEGENTYCPRCGKLLIERWGFEILRYEIKDGKCKY” the value was “failed”. The result for “DGRCISLLKILMTNFCIFDCAYCVNRVSSRVERARFSVEEVVTLTVEFYRRNYIEGLFLSSGIIRSPDDTMADMVRIAKTLREREHFRGYIHLKTIPDAAPELIEQAGLYADRLSINVELPTEAGLDRFAPEKSATGIRKAMAEVRLKREASREPSFSGRRPSRFA” reads “failed”.

Consider “DGVRLLEELGAINAEAKDAKKRLTSIGRQLARLPIDPRLARMVLEAPKYGALKEVMIIAAALSIQDPRERPSDKQQSSDDKHRRFFHEESDFLTFV”, for which the protein production result is on record as “failed”.

Regarding “DHPEEGDTAPDFTRPLVNDEFWEDESLASVCADSDRVVLVFHAMDGAFPATYIWNEIRDRAWHEQATVVGISISTPYEHKQLLKEREIEGDYRLFSDPANGVAQQYSIDMALDGMAGIEEPRPSVFVLDSDRTIEYAWVAQEWPDFPDYDDVEAQL”, the protein production result is recorded as “failed”. The result for “DIDTFYSKVHNIIGQLINAKNFFIAKYEKDSDTLSFSYYVDEKTSNLAKDFKPRKLSNRYSELVLRRRETVLLTYQEMMSLHLEGETKKPQDDIHSWLGVPLIYSGQLLGVMVLQSYYYKTTYNQQDAELLNFVSNHVSAAIKRRELAD” reads “failed”; that for “DIQVITQTGVPGQPLNFKAEPESETSILLSWTPPRSDTIANYELVYKDGEHGEEQRITIEPGTSYRLQGLKPNSLYYFRLAARSPQGLGASTAEISARTMQS”, “not failed”. Consider “DKDNTDEPKETAKALGKLASESKKEILLESAYLIFDDNQLKGWQALINTGVEIKALTNSMASNDLTTNHSGYAGRRQDMLEHGIQLYELKPETELCEESTKDVSKCAPILPYGLHAKSAVFDDKIASIGSFNFNLRSTYLNTESILIIENQKIAEQLTQDIEHAMDEENSWHLKLQEGDVRWYSGDKSWESEPETGRWERFQSGFLQLLPIE”, for which the protein production entry is listed as “failed”. As for “DLLDPETWQFIRDSARHFPPDSDRLPLAEQRALHAGLCRAFRAPLPPDVTLTDRTFGTRPCRLYEPAAPAGTVLFLHGGGFVLGGLDAFDDLCAEIAAGTGLRTVAVDYRLAPEYPHPEDFHDALRAAQAVAQAFPGPLVLMGEDAGGALSASFAHALRGRRALAGQVLVCPMLGGALDRVSALTHATAPMLSRQDVLRMGALRHGGREPAADPTADALRDTDFRGLPPTLIVTAQCDPLTDDGRAYRDAIRAAAGRARWIEEPGLVHGFLRARHRVPRAAASFARILQAASAMAHDR”, the protein production entry is “failed”. For “DLNLPIYPVKGYSLTLPVTNSDGAPVSTVLDESYKVAITRFDNRIRVGGMAELSGYEIKLPEKRRETLALVVNDLFPEGGDLSQASFWSGLRPMTPDSTPLIGRTRFDN” the value was “failed”; for “DNKKIILEFSSPNTNKPLHVGHLRNDVIGESLSRILKAVGAKITKINLINDRGVHICKSMLAYKKFGNGITPEKAFKKGDHLIGDFYVKYNKYSQENENAEKEIQDLLLLWEQKDVSTIELWKKLNKWAIEGIKETYEITNTSFDKIYLESEIFKIGKNVVLEGLEKGFCYKREDGAICIDLPSDSDEKADTKVKQKVLIRSNGTSIYLTQDLGNIAVRTKEFNFEEMIYVVGSEQIQHFKSLFFVAEKLGLSKNKKLIHLSHGMVNLVDGKMKSREGNVIDADNLISNLIELIIPEMTQKIENKESAKKNALNIALGAIHYYLLKSAIHKDIVFNKKESLSFTGNSGPYIQYV”, “failed”; for “DPKEGVQYEVLSTSLENDGMAPVTEVFALSCGHCRNMENFLPVISQEAGTDIGKMHITFNQSAHIASMFYYAAEMQVDGAPDHAFMEDLFAATQMGEGTTLTEQQEAYSKAFTSRGLVSPYDFNEEQRDTLIKKVDNAKMLSEKSGISSVPTFVVNGKYNVLIGGHDDPKQIADTIRYLLEK”, “not failed”. The result for “DQEVRLENRITFQLELVGLERVVRISAKPTKRLQEALQPILAKHGLSLDQVVLHRPGEKQPMDLENPVSSVASQTLVLDTPPDAKMSEARS” reads “not failed”.
